± gives the uncertainty stated by the source.
Assay: self-splicing fitness, log relative to wild type (ln ratio); higher = more splicing; Tetrahymena group I intron in knt gene, E. coli kanamycin selection, DiMSum; sequences stand for … in CUCUCU…GGAGGGAAAAGUUAUCAGGCAUGCACCUGGUAGCUAGUCUUUAAACCAAUAGAUUGCAUCGGUUUAAAAGGCAAGACCGUCAAAUUGCGGGAAAGGGGUCAACAGCCGUUCAGUACCAAGUCUCAGGGGAAACUUUGAGAUGGCCUUGCAAAGGGUAUGGUAAUAAGCUGACGGACAUGGUCCUAACCACGCAGCCAAGUCCUAAGUCAACAGAUCUUCUGUUGAUAUGGAUGCAGUUCACAGACUAAAUGUCGGUCGGGGAAGAUGUAUUCUUCUCAUAAGAUAUAGUCGGACCUCUCCUUAAUGGGAGCUAGCGGAUGAAGUGAUGCAACACUGGAGCCGCUGGGAACUAAUUUGUAUGCGAAAGUAUAUUGAUUAGUUUUGGAGUACUCGUGGUCG
In short: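 The eight P1ex-region nucleotides of an intron in the knt kanamycin-resistance gene on pET-22b(+) were all randomised and the library put into E. coli BL21(DE3). Six replicate transformations were grown overnight at 37°C or 30°C on LB agar with or without 25 μg/mL kanamycin, together with 100 μg/mL carbenicillin, 50 μM IPTG and 0.2% rhamnose. Colonies were pooled and amplicon-sequenced on an Illumina HiSeq 2500. Fitness from DiMSum is the error-weighted combination of wild-type-normalised replicate fold changes, kanamycin over none.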

Row | Sequence | self-splicing fitness (ln) (30 °C) | self-splicing fitness (ln) (37 °C)
1 | AUACAGCAAUAUUACGACAC | -0.517 ± 0.11 | -1.31 ± 0.13
2 | AUACAGCAAUAUUACGACAG | -2.15 ± 0.14 | -2.03 ± 0.15
3 | AUACAGCAAUAUUACGAGCC | -2.64 ± 0.27 | –
4 | AUACAGCAAUAUUACGAGGA | -3.26 ± 0.19 | -0.911 ± 0.12
5 | AUACAGCAAUAUUACGCACG | -2.13 ± 0.12 | -0.772 ± 0.15
6 | AUACAGCAAUAUUACGCCCC | -1.47 ± 0.25 | 0.0702 ± 0.23
7 | AUACAGCAAUAUUACGCGAC | -1.87 ± 0.14 | -1.97 ± 0.22
8 | AUACAGCAAUAUUACGCGAG | -2.35 ± 0.097 | -0.829 ± 0.1
9 | AUACAGCAAUAUUACGCGGU | -3.44 ± 0.21 | -2.04 ± 0.18
10 | AUACAGCAAUAUUACGCUUA | -1.67 ± 0.12 | -0.741 ± 0.099
11 | AUACAGCAAUAUUACGGAGG | -3.46 ± 0.21 | -1.8 ± 0.19
12 | AUACAGCAAUAUUACGGAUU | -1.82 ± 0.079 | -1.24 ± 0.088
13 | AUACAGCAAUAUUACGGCUA | 0.0244 ± 0.072 | 0.138 ± 0.082
14 | AUACAGCAAUAUUACGGCUU | 0.0959 ± 0.047 | 0.115 ± 0.057
15 | AUACAGCAAUAUUACGGUAA | -0.731 ± 0.094 | -0.502 ± 0.093
16 | AUACAGCAAUAUUACGGUCA | -0.743 ± 0.09 | -0.0276 ± 0.099
17 | AUACAGCAAUAUUACGGUCC | -1.18 ± 0.097 | 0.135 ± 0.11
18 | AUACAGCAAUAUUACGGUCG | -1.08 ± 0.068 | -0.545 ± 0.094
19 | AUACAGCAAUAUUACGUAAA | -1.87 ± 0.091 | -1.41 ± 0.087
20 | AUACAGCAAUAUUACGUAAG | -0.561 ± 0.05 | -0.0861 ± 0.068
21 | AUACAGCAAUAUUACGUACG | -0.772 ± 0.1 | 0.0144 ± 0.12
22 | AUACAGCAAUAUUACGUAUA | -3.94 ± 0.26 | -2.49 ± 0.16
23 | AUACAGCAAUAUUACGUCGC | -2.42 ± 0.13 | -3.06 ± 0.26
24 | AUACAGCAAUAUUACGUUUC | -3.38 ± 0.19 | -1.49 ± 0.2

Row | Sequence | self-splicing fitness (ln) (30 °C) | self-splicing fitness (ln) (37 °C)
25 | AUACAGCAAUAUUACGUUUG | -2.93 ± 0.11 | -2.35 ± 0.14
26 | AUAGAGCAAUAUUACGAAGG | – | -1.24 ± 0.39
27 | AUAGAGCAAUAUUACGAGUU | -2.25 ± 0.13 | -1.33 ± 0.15
28 | AUAGAGCAAUAUUACGAUCG | -1.08 ± 0.14 | -1.4 ± 0.27
29 | AUAGAGCAAUAUUACGAUGA | -2.14 ± 0.21 | -1.75 ± 0.29
30 | AUAGAGCAAUAUUACGCAAU | -0.971 ± 0.14 | 0.283 ± 0.2
31 | AUAGAGCAAUAUUACGCACA | -0.178 ± 0.09 | -0.032 ± 0.11
32 | AUAGAGCAAUAUUACGCCAG | -2.27 ± 0.21 | -1.14 ± 0.27
33 | AUAGAGCAAUAUUACGCGAC | -2.44 ± 0.18 | -1.3 ± 0.17
34 | AUAGAGCAAUAUUACGCGAG | -1.54 ± 0.11 | -1.26 ± 0.14
35 | AUAGAGCAAUAUUACGCUUG | -0.549 ± 0.12 | -0.411 ± 0.13
36 | AUAGAGCAAUAUUACGGAGA | -1.97 ± 0.26 | -2.31 ± 0.39
37 | AUAGAGCAAUAUUACGGCCU | -0.822 ± 0.2 | -0.365 ± 0.21
38 | AUAGAGCAAUAUUACGGCGU | 0.102 ± 0.079 | 0.527 ± 0.12
39 | AUAGAGCAAUAUUACGGCUC | -0.971 ± 0.11 | -0.403 ± 0.23
40 | AUAGAGCAAUAUUACGGCUU | -0.934 ± 0.12 | -1.34 ± 0.14
41 | AUAGAGCAAUAUUACGGGAC | -2.71 ± 0.18 | -2.36 ± 0.27
42 | AUAGAGCAAUAUUACGGGGA | – | -2.44 ± 0.28
43 | AUAGAGCAAUAUUACGGUAG | -3.5 ± 0.16 | -1.38 ± 0.13
44 | AUAGAGCAAUAUUACGGUUA | -1.49 ± 0.083 | -1.05 ± 0.11
45 | AUAGAGCAAUAUUACGUCAA | -2.19 ± 0.23 | -1.77 ± 0.24
46 | AUAGAGCAAUAUUACGUCUA | -0.2 ± 0.076 | 0.816 ± 0.11
47 | AUAGAGCAAUAUUACGUGAU | -2.02 ± 0.12 | -0.825 ± 0.17
48 | AUAGAGCAAUAUUACGUGGU | -2.91 ± 0.19 | -1.83 ± 0.2

Row | Sequence | self-splicing fitness (ln) (30 °C) | self-splicing fitness (ln) (37 °C)
49 | AUAUAGCAAUAUUACGACAC | -1.5 ± 0.23 | -0.312 ± 0.29
50 | AUAUAGCAAUAUUACGAGCA | -2.32 ± 0.24 | -0.917 ± 0.18
51 | AUAUAGCAAUAUUACGAUCC | -0.6 ± 0.16 | -0.578 ± 0.28
52 | AUAUAGCAAUAUUACGCAAA | -1.94 ± 0.24 | -1.69 ± 0.24
53 | AUAUAGCAAUAUUACGCUAA | -1.87 ± 0.3 | -0.768 ± 0.27
54 | AUAUAGCAAUAUUACGCUGG | -2.06 ± 0.2 | -1.51 ± 0.32
55 | AUAUAGCAAUAUUACGCUUG | -1.42 ± 0.11 | -0.589 ± 0.13
56 | AUAUAGCAAUAUUACGGGCA | -1.67 ± 0.17 | -1.29 ± 0.19
57 | AUAUAGCAAUAUUACGUAAC | -1.11 ± 0.21 | -1.86 ± 0.38
58 | AUAUAGCAAUAUUACGUAGG | -3.06 ± 0.21 | -0.744 ± 0.16
59 | AUAUAGCAAUAUUACGUCGG | -3.37 ± 0.33 | -2.03 ± 0.28
60 | AUAUAGCAAUAUUACGUGUG | -3.82 ± 0.27 | -2.46 ± 0.18
61 | AUCAAGCAAUAUUACGAACG | -1.61 ± 0.13 | -0.462 ± 0.13
62 | AUCAAGCAAUAUUACGAAGA | -1.66 ± 0.19 | -1.64 ± 0.23
63 | AUCAAGCAAUAUUACGAGCC | -3.07 ± 0.32 | -1.23 ± 0.31
64 | AUCAAGCAAUAUUACGAUAG | -2.36 ± 0.35 | -1.63 ± 0.43
65 | AUCAAGCAAUAUUACGCCGU | -1.19 ± 0.087 | -0.429 ± 0.1
66 | AUCAAGCAAUAUUACGCCUU | -0.799 ± 0.094 | -0.146 ± 0.12
67 | AUCAAGCAAUAUUACGCGAU | -4.42 ± 0.33 | -3.08 ± 0.3
68 | AUCAAGCAAUAUUACGCGCU | -1.27 ± 0.12 | -0.36 ± 0.11
69 | AUCAAGCAAUAUUACGCUAC | – | -0.41 ± 0.33
70 | AUCAAGCAAUAUUACGCUCU | -0.452 ± 0.07 | 0.0492 ± 0.082
71 | AUCAAGCAAUAUUACGCUGA | -2.51 ± 0.13 | -1.46 ± 0.12
72 | AUCAAGCAAUAUUACGGACC | -1.47 ± 0.12 | -1.22 ± 0.086

Row | Sequence | self-splicing fitness (ln) (30 °C) | self-splicing fitness (ln) (37 °C)
73 | AUCAAGCAAUAUUACGGCCA | -0.51 ± 0.074 | -0.264 ± 0.079
74 | AUCAAGCAAUAUUACGGCUC | -0.551 ± 0.063 | -0.7 ± 0.076
75 | AUCAAGCAAUAUUACGGCUU | -2.87 ± 0.13 | -1.54 ± 0.14
76 | AUCAAGCAAUAUUACGGUGA | -1.36 ± 0.096 | -0.818 ± 0.1
77 | AUCAAGCAAUAUUACGGUUC | -3.53 ± 0.24 | -2.01 ± 0.13
78 | AUCAAGCAAUAUUACGUCUA | -0.821 ± 0.073 | -0.438 ± 0.076
79 | AUCAAGCAAUAUUACGUCUG | -1.16 ± 0.062 | -0.603 ± 0.076
80 | AUCAAGCAAUAUUACGUUCG | -1.5 ± 0.086 | -0.132 ± 0.091
81 | AUCAAGCAAUAUUACGUUUA | -1.73 ± 0.1 | -1.31 ± 0.093
82 | AUCAAGCAAUAUUACGUUUG | -2.87 ± 0.15 | -2.43 ± 0.18
83 | AUCCAGCAAUAUUACGAACC | -0.394 ± 0.1 | -0.346 ± 0.15
84 | AUCCAGCAAUAUUACGAACG | -0.746 ± 0.08 | -0.625 ± 0.12
85 | AUCCAGCAAUAUUACGACCC | -1.24 ± 0.071 | -0.202 ± 0.089
86 | AUCCAGCAAUAUUACGACCU | -1.86 ± 0.2 | 0.313 ± 0.18
87 | AUCCAGCAAUAUUACGACGC | -1.16 ± 0.12 | -0.49 ± 0.15
88 | AUCCAGCAAUAUUACGAGCC | -3.17 ± 0.25 | -3.32 ± 0.33
89 | AUCCAGCAAUAUUACGAUGA | -0.862 ± 0.086 | -0.285 ± 0.094
90 | AUCCAGCAAUAUUACGAUGG | -3.82 ± 0.27 | -2.85 ± 0.25
91 | AUCCAGCAAUAUUACGAUUC | -1.5 ± 0.11 | -0.86 ± 0.12
92 | AUCCAGCAAUAUUACGCAAU | -1.38 ± 0.064 | -0.773 ± 0.089
93 | AUCCAGCAAUAUUACGCAGU | -2.72 ± 0.11 | -0.839 ± 0.09
94 | AUCCAGCAAUAUUACGGCAG | -1.78 ± 0.085 | -0.158 ± 0.097
95 | AUCCAGCAAUAUUACGGGAA | -1.17 ± 0.079 | -0.654 ± 0.082
96 | AUCCAGCAAUAUUACGGGGG | -3.15 ± 0.16 | -1.96 ± 0.15
